Source: the DeepSol protein solubility set

Assay: soluble on expression in E. coli; label from the status in PepcDB or PDB records

Soluble on expression in E. coli, not soluble:
MGSDKIHHHHHHMWFAVLSSNEVRRKPVGVRRLGRDLVFWRDSLGKVYALEDFCVHRRARLSAGKVINDRIQCPFHGFEYDGNGRVRLIPALGKNYKVPDRFRVNSYPVYEKNNIIWLWSGEGEPEKEPKFFDDIDEDFAYAEFRELWNVPFPRAVENQLDVMHLPFVHRTTIGRGNRTLVHGPVVKWIDEDSFIFYVFNEVDRGQRVKRPEELSGEESRVYLEFIFPNLWQNHISEGTRVVAFFVPVDRQKTMIYLRFYVKMTGLKPVDSIIARLSMPLNRIILHQDRRVVETQERDIRKDVLVQGDLPIMEFRKRLYKEKKLIDFLFGGGQ, MGSDKIHHHHHHMWKSISQVLAEQFGAYYFIKHKEKLYSGEMNEIWLINDEVQTVFVKINERSYRSMFRAEADQLALLAKTNSINVPLVYGIGNSQGHSFLLLEALNKSKNKQSSFTIFAEKIAQLHQIQGPDKYGLDFDTWLGPIYQPNDWQTSWAKFFSENRIGWQLQICKEKGLIFGNIDLIVQIVADTLSKHNPKPSILHGNLWIENCIQVDDKIFVCNPACYWGDRECDIAFSSLFEPFPTNFYQRYNEIYPLEEGYLERKLIYQLYYLLNFSYRYYNKKQSYVSLTQKLINQILHKIDK, MGSDKIHHHHHHMWPDRHAKHLTLGRSRQQMLEFENVSKSFWTGTQRKVILDRVSFRVELGKSMGILAPNGTGKSTLINMMAGLEKPDEGVIRRGCNISFPLGFMGGVVGRLSAMENSRYIARLYGMDPDYIEAYCRWLCGLGEYFDQPLGTYSSGMRARFSFALMLALDFDMYLIDEGMPASTDVEFNKKAGAILEERLRTTTIVIVSHQPATLEQFARQAAVLMDGQLHVFDTLEEAKQLYDYQTQG, MGSDKIHHHHHHMYAETDFIALSALQHYVFCPRQCALIHLEQVWSENLYTAEGREMHERADSAVTSYREGVKVTRSVPLRSAVLGVSGVADVVEWHRREGGFEPFPVEYKRGKPKKHDADKVQLCAQAMCLEEMRSCAIPSGALFYGQTMRRLDVVFDEVLRSKTVAAAAGVHGLFSLGVTPHPEFGPKCKLCSLVDECLPEVLERHGSAKRYVQKLYRELSGEEI, MGSDKIHHHHHHMYIEEIKRVLSDQRDVLEEKMSRKLVERDVPNLLKYLEVPNALAILGVRRSGKSTLSLLLLKRKKFAYVNFDDERFYNLNIGDLNKVLQAIYELYGVDVDYIVLDEIHNVKGWELFVSRLRDVKKLIITGSNSKMLSGELATYLTGRHSDYILFPFSFQEYLKYKEVKVEYFSTRVISTLKNELEKYTEVGGFPEALMLGKEQVNVIYNDILFKDIVSRYKIREIEKFREFARTVISYYSNEISLSSIAKILGLNKRTVEKWASGLREAYLTFFIPRYGEKLKQRLTYNKKVYVVDVGIVSNLAIKGKDKGRIIENLVAIKLLRELQGEEKLYYMRNNYEVDFYDEKNSRLIQVTYTSDKIENREIRGLIEGYRLTKAKKLLIITWDLEEKIQVEGVNIEVLPLYRFLLE, MGSDKIHHHHHHMYIESFKQHFSAIDDHRQSAKVTYPLFDVLFGSLCAVIASSNGWFEIREYILGHHSWFKKQKMFIDGIPADDTIARIVSMIEPDSFNACFLAWMKSVHQLTNGEVIAIDGKTLRGSYNRDDRSSTIHMISAYASANKLVLGQLKAEQKSNEITAIPTLLKMLDLRGALVTIDAMGCQTAIATTIIDKGGDYLLAVKNNQGNLAKAINKAFSSHRSAGLSDDHVNIEKSHGRIENRACFVLSSAELDGDFTHWEALKSIVMVESFRAVKGKTASLEYRYYISSKVLSAEQALSATREHWGIESMHWVLDVSMNEDECQIYKNNGAENLAYLRHMSLNMLQKEPTKLSIVGKRKRCLMNPAFLEKVLIAGLCAPTK, MGSDKIHHHHHHMYKEYSPCSVLAPFIYHFWEYKGETRNGLKFNIPPHGRSDFVFIVGNAADCIRNSLIMKPYHSYFFGPMNTFTELVAHTNFIYIIGVRFRPCGLFRFIDIPLNELTNQGIDSHEFPVLFSQSFIYQLCESNQNPIDAIEHELVRQVYKNNTDTEKQISYAVSLISRQKGIVSIKELATEACLGLRQFERKFKFYTGYSPKEYSRIVKFWNAIHLLKSNTSFDNFLSVAIQAGYYDTPHLYREVKRLSGNTPNAFLSLSTNEKVEVLHIEL, MGSDKIHHHHHHMYLITSAAMVASELQSEFGPLPPCFLPVGNKRLFHHQLALIPAGERTIITLPEGFTPGPYDSQSLKDYGVELLYLPPTLSLGESIVYALIQLEFADDEPLYILHGDTLFDSLPRQTDCLGLSQVEDNYNWAEFDAQSGTLRPYHAELRPSSELISNGFFSFSAPRTLIRYITQAKGDFIAGLNGYIDDKGLTPITLPHWYDFGHSHTYYQSKSRMTTQRAFNGMAIQGQVVKKFSRNKHKLAAEANWYQSLPGPMRGYIPQLLGCDESPELFGYSIEYLHLTALNELYVFSQLPAFAWRKVLKACCQFLKDASSYSVADAQTLSGLFMDKTLSRLEDFASQSGISVAQENRINGALRPSLLELARISREYLPKDNGRQHLLHGDFCFSNILYDFRTCNIKVIDPRGLDGNDKQTIHGNGLYDIAKLAHSVLGLYDAIIAGYFKAERLGQNLDFSIAITPRREQIMADFVRLMASEFAVSEAELYAMQIQLFLSMLPLHSDRPDRQLGFIGNAYRLYDRLLACTGNPS, MGSDKIHHHHHHMYMYVNDKLVKEEEAIISPFDHGYMYGLGLFETFRLYEGHPFLLDDHFVRLEEGLRALAIDWTYNRSHVLHQLATLCNKNGVRNAYIRWNVSAGPGPIGLYTDTYKEPTVIIYMKSLPQGLSTRKTGTLLELRRNTPEGDRRLKSHHFLNNVLGKREVAKDPQTEGIFLTEDGVLAEGLTSNVFWVKNGVVYTPSVDTGILNGITRQFVLTLCDKEGIPWREGRYPKEALLKADGAFITNSIQEIVTLTSVGQAEFNQDEAVIMSLRKSYQKYCTKLWSKNEIKEGKQDVNNTCK, MGSDKIHHHHHHMYSSEKMQWFAMRATYRRGMQIKGLLDQKGINSFIPMRYEIHLKNGHRRRELVPVIRDIVFVHTTQSELQRIKYGIPYFQYMMDIRNGEKIIVPDEQMRRFIAVAGTYDEQIIFFSPDEVNLRKGTKVRITGGQFEGYEGVFVKVKGSRDRRVVISLQGILALAMATLSPDLIEVIEEPKKRNHD, MGSDKIHHHHHHMYTYKIGISKEEHDNFIKNSSQTNLLQSSSWAKVKDEWENERIGFYQDSKLVASASILIRPLPLGMTMFYIPRGPVMNYQDKDLVNFVLTSLKKFAKRKRALFIKFDPFILLNHHQIDEEAINNPQAQTIIDTLKHLGCEWLGQTSDMGETIQPRFQANIYAEGFSEANLSKKIRQSIRTAKNKGVSIRFGGYELLADFSDLMKKTEDRKSIHLRGIDYYRKLLDNYPQHSFITLASLNLKERLTELESQRKKAQNNLAKFGDNVKPSKIDNTKKEIERLSDEIAFLQEHLSQGKDTVPLSGTLSLEFGKTSENVYAGMDDEFRRYQAAIYTWFATANHAFERGSHWQNMGGIENDLSGGLYNFKSKFKPEIEEFIGEFNLPVSPLYKLANIAYTIRKKRRSKH, MGSDKIHHHHHHNDDPGKDPDVVTYDFKNLPADSGAKPTEDQMSAVVATFVDEVALPTYKDMLTKMTAYKNAVDKFIASGSKNDLADACDAWRAVRVPWEQSEAFLFGVADLAQLDPSLDSWPLDKNGIEEIIATGEFSKISGAVDEDAEDGPQNLRGFHTAEKMLFLDGEPRDLETSPFAKNELEYLKLVSERMLSDTQDLYNGWLKGLGTSDVPSSYAEAMKKHDGSAYSIGNVYQAIELMLNGNNGMAGISNEVGSAKITDPVTAWNGSNKDATDPNNPGVLAVESWYSWNSLDDYKNNIVSIKNAYFGGRDLDEESASESSLHALTKMINPTLDSLMVVQIDKTIDAINAIGYPFRNNLGDTEHINTATEACADLTTGLGVVKSKFTN, MGSDKIHHHHHHNEDDIFDESSAQRAIASVNECQEILKGAANGWLLEYYTGEDGEYGGFNVLARFDGNNVIMAADFATDNYEIGEESTSLYKVESYQGTELSFDSYNELIHEFCEPSGYNSPGYAGDYEFVFRSVSKEKIVLTGKKHGVTLIMTPLPAETNWQEKLTNIANVVSQASYVTYKLIVNGQEITKMGQEEHAFSVTKVDETGETTVSLYPFIYTEEGIKMYEPLVVNGVEINNFKWDNENLTYICTDTGVDAKIEFYCPEGYLNYLGNYILQLANGQRIQLELKQKMIGKSFAMNFALSGTPIEFVYNYNMTTDCIDVPSQTVGVYQGYNVLLYPGIPGGNFYADDSAVFQGRIANTDPLTIKFTYVNNPICTLMLLVYQKTDGWYGFSTMFQDVTLIKVD, MGSDKIHHHHHHNSALEWLQRAASAAKEQNYSGIYVYHHGDEVEVLRVLHRNDGRREQEKTEVMDGTQRHFLRVNSDVYCHLADGKQVRLERNASRRFFPAFLPARAAGLAELYEVKLGGVERVAGRPCQVVMLEPRDGYRHAFQLWLDSRTGLPLKSRIVNSDGEVVSMFVFSEVQIGRPPDASLFRNELAGKQVQQVSLGQRIDLPWSVTPPPGFERVQEAVRTLPGRNTPVTHLVFSDGLSVLSMFIEPADPGVPSLQGLSAEGAIGVYARALDGHTITTVGEVPNLALIETGNSVRRK, MGSDKIHHHHHHPEIIVPKPHQLKWHEAEMGAVFHYDLHVFDGIRYGQGNNRISPIEDYNIFNPTQLDTDQWIQAAKAAGCKFAVLTATHETGFGLWQSDVNPYCLKAVKWRDGKGDIVRDFVNSCRKYGIQPGIYVGIRWNSLLGIHNFKVAGDGEFAANRQAWYKRFCEKMVEELCTRYGDLYMIWFDGGADDPRGDGPDVEPIVNKYQPDCLFYHNIDRADFRWGGSETGTVGYPCWSTFPAPCSHHKRIESQKDQIALLKQGDPEGKYWVPAMADSPLRGANGRHEWFWEPDDENNIYPLTTLMDMYEKSVGRNATLIIGLTPDPDGLLPAGDEQRLKEWGEEINRRFGTPLAETQGRKQRLTLNLNEKQPVNYCIIQEDIAKGERIRQYKIEAKVNGKWQTVCSGESVGHKRIAHFEPVETTALRLTVTQSVAVPEIRHFSAYNVTLK, MGSDKIHHHHHHPSEEVAKSGNPVFEGWYADPEGIIYGDTYWIYPTTSDLYEKQTFFDCFSSKDLVSWTKHTAILDTAEVKWAKIAMWAPSVINKDGKYYLFFGANDVHEGEIGGIGVAVSDRPEGPYKDLLGKPLINEIVNGAQPIDQFVFHDADNDEYYMYYGGWKHCNMVRLNKDFTGLIPFEDGTIYKEVTPKDYVEGPFMFKKNGKYYFMWSEGGWTGPDYKVAYAISDSPFGPFNRIGEVLRQNFDMANGAGHHSIMHVPNSEDYYIVYHRRPAGVKTRDHRETCIEKMTFNEEGLINPVEITTEGVEARTIQ, MGSDKIHHHHHHQEKVSSMSEKSAPGSIQQPTRAQQLMGDIDPKLAELTDKVLFGDVWERKQLSKRDRSLVTVAALISLNRPDQLRSHMALALQNGVTREELVETITQLAFYTGWPNAVSAVPVARDVFRAADAAASHPDQGAQAQDDRTITVIHAGSQPSTHGSADHFTGSVQVDSRFQAQAPARSGGGIVTFEPGARTAWHTHPLGQTLIVTAGIGLVQQWGGPVQVIKPGDIVWIPPGVKHWHGATRTSGMTHIAIAEALDGKSVDWMELVMDAQYLGGQPR
